One assay concerns ES0195 tumors. As to the kind of experiment: Esophageal cancer PDX model ES0195. The format is in vivo, BALB/c nude mice. The note with it: 20 mg/kg i.p. at day 0, 7 and 14. The procedure: Tumor fragments from donor mice bearing patient-derived esophageal xenografts (ES0195) were used for inoculation into BALB/c nude mice. Each mouse was inoculated subcutaneously at the right flank with one tumor fragment (2-3 mm in diameter) and tumors were allowed to grow until the tumor volume was about 150 mm^3. […] The antibodies and ADCs were dosed intravenously (i.v.) at 4 mg/kg at day of randomization (day 0) and day 7. Paclitaxel was dosed intra-peritoneally (i.p.) at 20 mg/kg at day 0, 7, and 14. Tumor volumes (mm^3) were monitored twice weekly and were calculated from caliper (PLEXX) measurements as: 0.52×(length)×(width)^2.

In another assay the test system is CV1664 tumors. Kind of assay: Cervical cancer PDX model CV1664. The format is in vivo, BALB/c nude mice. The procedure: Inoculation of tumor fragments into BALB/c nude mice and randomization was performed as described in Example 21.
The test system of the next assay is A431 cells. Kind of assay: Antibody-dependent cell-mediated cytotoxicity (51Cr release). The format is cell-based, human. The following applies: concentrations up to 10 μg/mL. The method, then:
The ability of anti-AXL antibodies to induce ADCC of A431 epidermoid carcinoma cells was determined as explained below. As effector cells, peripheral blood mononuclear cells from healthy volunteers (UMC Utrecht, The Netherlands) were used.
A431 cells were collected (5×10^6 cells) in culture medium (RPMI 1640 culture medium supplemented with 10% fetal calf serum (FSC)), to which 100 μCi ^51Cr (Chromium-51; Amersham Biosciences Europe GmbH, Roosendaal, The Netherlands) had been added, and the mixture was incubated in a 37° C. water bath for 1 hour (hr) while shaking. After washing of the cells (twice in PBS, 1200 rpm, 5 min), the cells were resuspended in RPMI1640/10% FSC and counted by trypan blue exclusion. Cells were diluted to a density of 1×10^5 cells/mL.
Peripheral blood mononuclear cells (healthy volunteers, UMC Utrecht, Utrecht, The Netherlands) were isolated from 45 mL of freshly drawn heparin blood by Ficoll (Bio Whittaker; lymphocyte separation medium, cat 17-829E) according to the manufacturer's instructions. After resuspension of cells in RPMI1640/10% FSC, cells were counted by trypan blue exclusion and diluted to a density of 1×10^7 cells/mL.
50 μl of ^51Cr-labeled targets cells were pipetted into 96-well plates, and 50 μl of antibody were added, diluted in RPMI1640/10% FSC (3-fold dilutions at final concentrations range 0.01-10 μg/mL). Cells were incubated (room temperature (RT), 15 min), and 50 μl effector cells were added, resulting in an effector to target ratio of 100:1 (for determination of maximal lysis, 100 μl 5% Triton-X100 was added instead of effector cells; for determination of spontaneous lysis, 50 μL target cells and 100 μL RPMI1640/10% FSC were used). Cells were incubated overnight at 37° C. and 5% CO2. After spinning down cells (1200 rpm, 10 min), 70 μL of supernatant was harvested into micronic tubes, and counted in a gamma counter. The percentage specific lysis was calculated as follows:
% specific lysis=(cpm sample−cpm target cells only)/(cpm maximal lysis−cpm target cells only),
wherein cpm is counts per minute.

In assay [1] the test system is MDA-MB-231 and Calu-1 cells. Kind of assay: Internalization of cell surface bound HuMab-AXL by flow cytometry. The class given is cell-based, human. The following applies: 1 hour 4° C, then overnight 37° C versus 4° C. The procedure: Internalization of cell surface bound HuMab-AXL antibodies to MDA-MB-231 and Calu-1 cells (human lung carcinoma cell line; ATCC, catalognumber HTB-54) was evaluated by flow cytometry. 50,000 cells were seeded in 96-well tissue culture plates and allowed to attach for 6 hrs at 37° C. Plates were incubated at 4° C. for 30 minutes before incubation with serial dilutions of AXL-antibodies (final concentration range 0.0032-10 μg/mL) at 4° C. for 1 hour. Subsequently, the medium was replaced by tissue culture medium without antibody and cells were incubated overnight (16-18 hours) at 37° C. or 4° C. […] Finally, cells were washed twice in PBS/0.1% BSA/0.02% azide, resuspended in 120 μL PBS/0.1% BSA/0.02% azide and analyzed on a FACS Cantoll (BD Biosciences).
(§1) Binding curves were analyzed using non-linear regression (sigmoidal dose-response with variable slope) using GraphPad Prism V5.04 software (GraphPad Software, San Diego, Calif., USA).

The test system of the next assay is SKMEL147 tumors. Kind of assay: SKMEL147 melanoma xenograft model. The following applies: 4 mg/kg i.v. on day 12 and day 19 after tumor cell injection. The class given is in vivo, NMRI nude mice.
Assay [2] has as its target T1, AXLECDHis (extracellular domain of human AXL) (Homo sapiens, UniProt P30530).
T1 construct: the extracellular domain (ECD) of human AXL (aa 1-447) with a C-terminal His tag (AXLECDHis); His tag (C); made in house; host or cells: HEK-293F
As to the kind of experiment: Binding affinity by Bio-Layer Interferometry (Octet). The note with it: soluble AXLECDHis, 30° C, 1:1 model.

The next assay addresses T2, human AXL (Homo sapiens, UniProt P30530).
T2 construct: expression constructs for full length human AXL; expressed in transfected cells; host or cells: HEK293T
As to the kind of experiment: Flow cytometry binding to HEK293T cells transfected with full length human AXL. The note with it: at least 3 experiments. (In general: In flow cytometry, cells or beads pass a laser one at a time.)

For assay [3], the target named is T3, human AXL with a cynomolgus monkey extracellular domain (ECD) (Homo sapiens, UniProt P30530, P441T/S191N/S285L/T105A/T112A/T125N/T443A).
T3 construct: aa 1-447); expressed in transfected cells; host or cells: HEK293T
As to the kind of experiment: Flow cytometry binding to HEK293T cells transfected with human AXL with cynomolgus ECD. The note with it: at least 3 experiments.

In assay [4] the target is T4, human AXL with a mouse ECD (Mus musculus, UniProt Q00993, A791T/A867T/C878S/D603E/D853E/E609A/F637Y/G606S/G869S/H824Y/L452V/L825P/L872Q/P881A/R785Q/R828P/S823G/S856P/S873P/T871A/V766A).
T4 construct: aa 1-441); expressed in transfected cells; host or cells: HEK293T
T4 sequence (Q00993 19-888 with the stated changes): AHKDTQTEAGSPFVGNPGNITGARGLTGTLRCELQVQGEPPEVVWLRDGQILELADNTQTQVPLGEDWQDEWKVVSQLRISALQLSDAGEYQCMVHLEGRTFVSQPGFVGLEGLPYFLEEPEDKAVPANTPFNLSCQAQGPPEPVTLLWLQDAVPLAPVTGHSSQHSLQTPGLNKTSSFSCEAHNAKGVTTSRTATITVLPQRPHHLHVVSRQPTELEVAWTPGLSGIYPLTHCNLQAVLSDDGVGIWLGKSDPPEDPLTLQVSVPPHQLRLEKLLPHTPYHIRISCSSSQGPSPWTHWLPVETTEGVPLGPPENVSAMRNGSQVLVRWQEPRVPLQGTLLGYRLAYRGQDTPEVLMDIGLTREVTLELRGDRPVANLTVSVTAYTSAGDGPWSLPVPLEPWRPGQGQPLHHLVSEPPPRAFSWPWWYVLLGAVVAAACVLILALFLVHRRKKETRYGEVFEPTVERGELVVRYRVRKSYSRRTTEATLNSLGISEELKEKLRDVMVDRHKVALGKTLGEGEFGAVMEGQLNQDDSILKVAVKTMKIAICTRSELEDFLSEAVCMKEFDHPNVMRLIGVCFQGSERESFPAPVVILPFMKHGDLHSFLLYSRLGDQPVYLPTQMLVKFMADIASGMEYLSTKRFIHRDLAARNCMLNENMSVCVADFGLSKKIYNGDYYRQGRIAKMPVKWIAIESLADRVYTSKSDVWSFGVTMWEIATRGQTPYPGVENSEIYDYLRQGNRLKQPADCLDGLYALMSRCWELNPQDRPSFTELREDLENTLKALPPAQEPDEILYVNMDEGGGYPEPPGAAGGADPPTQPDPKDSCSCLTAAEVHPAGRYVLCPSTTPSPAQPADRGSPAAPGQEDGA
As to the kind of experiment: Flow cytometry binding to HEK293T cells transfected with human AXL with mouse ECD. The note with it: 0.0024-10 μg/mL.

A further assay deals with T5, AXL on A431 cells (Homo sapiens, UniProt P30530).
T5 construct: AXL-positive A431 cells were incubated; endogenous in cells; host or cells: A431
Kind of assay: Antibody binding to A431 cells with or without Gas6 pre-incubation.

The target of assay [5] is T6, human AXL transiently expressed by HEK-293F cells (Homo sapiens, UniProt P30530).
T6 construct: HEK-293F cells transiently expressing full length human AXL; expressed in transfected cells; host or cells: HEK-293F
Kind of assay: Homogeneous antigen specific screening assay (FMAT). The note with it: binding to human AXL on HEK-293F cells.

A further assay relates to PAXF1657 tumors. As to the kind of experiment: PAXF1657 pancreas cancer PDX model. The format is in vivo, NMRI nu/nu mice. The note with it: dose not stated in the sentence (FIG. 10B, 10C). The method, then: Human pancreas tumor tissue was subcutaneously implanted in the left flank of 5-7 weeks old female NMRI nu/nu mice. […] At day of randomization (day 0), the 3 ADCs were dosed intravenously (i.v.) at either 4 mg/kg or 2 mg/kg, and the control group received a single dose of IgG1-b12 (4 mg/kg). Tumor volumes (mm^3) were monitored twice weekly and were calculated from caliper (PLEXX) measurements as: 0.52×(length)×(width)^2.

Assay [6] concerns the target Gas6 binding to AXL on A431 cells (Homo sapiens, UniProt P30530). Kind of assay: Gas6 binding to A431 cells pre-incubated with AXL antibodies. Also on record: endogenous in cells; host or cells: A431. The note with it: pre-incubation with 10 μg/mL antibody; control antibody b12. The procedure:
Alternatively, A431 cells were pre-incubated with 10 μg/mL AXL antibodies (15 minutes, 4° C.) to assess if the AXL ligand Gas6 could still bind in presence of AXL antibodies. […] After washing three times in PBS/0.1% BSA/0.02% azide, cells were incubated with mouse anti-Gas6 IgG2a (R&D Systems; cat no. MAB885) at 4° C. for 30 min. After washing three times in PBS/0.1% BSA/0.02% azide, cells were incubated with FITC-labelled goat anti-mouse IgG (Dako, Heverlee, Belgium; cat no. F049702) at 4° C. for 30 min in the dark. Next, cells were washed twice in PBS/0.1% BSA/0.02% azide, resuspended in 120 μL PBS/0.1% BSA/0.02% azide and analyzed on a FACS Cantoll (BD Biosciences).
as §1
Therefore, binding of Gas6 to A431 cells that had been pre-incubated with 10 μg/mL AXL antibodies was tested as described in Example 2.

Marks after values point to notes of the source that are not given here.

This note sets out measurements from patent US20200397913A1, “AXL-SPECIFIC ANTIBODY-DRUG CONJUGATES FOR CANCER TREATMENT” (GENMAB A/S, priority 2015, published 2020).

For the molecule `CC(=O)O[C@H]1C(=O)[C@@]2(C)[C@H]([C@H](OC(=O)c3ccccc3)[C@]3(O)C[C@H](OC(=O)[C@H](O)[C@@H](NC(=O)c4ccccc4)c4ccccc4)C(C)=C1C3(C)C)[C@]1(OC(C)=O)CO[C@@H]1C[C@@H]2O` [paclitaxel, reference compound], the anti-tumor activity result in the assay with ES0195 tumors is given as “tumor growth inhibition”; in the assay with CV1664 tumors (20 mg/kg intraperitoneally at day 0 and 7) it was “induced partial tumor regression”.

Regarding “IgG1-AXL-107: human IgG1,κ anti-AXL antibody, VH SEQ ID NO:1, VL SEQ ID NO:2; Ig1 domain binding”, the “induction of ADCC” value with A431 cells is given as “did not induce significant ADCC”. In addition, the “internalization of membrane-bound antibody” value in [1] was “internalize”. Also, the anti-tumor activity result is “did not show tumor growth inhibition” in the assay with SKMEL147 tumors; “only induced minor inhibition of tumor growth” with CV1664 tumors (4 mg/kg at day 0 and 7).

B1: IgG1-AXL-726-M101L: point mutant of IgG1-AXL-726, VH SEQ ID NO:32, VL SEQ ID NO:33 (antibody, V domains shown)
VH: QVQLQQWGAGLLKPSETLSLTCAIDGGSFSGYYWSWIRQPPGKGLEWIGEISHSGRTNYNPSLKSRVTISIDTSKNQFSLKLSSVAAADTAVYYCARFITLIRGAIITHFDYWGQGALVTVSS
VL: DIQMTQSPSSLSASVGDRVTITCRASQGISSWLAWYQQKPEKAPKSLIYAASSLQSGVPSRFSGSGSGTDFTLTISSLQPEDFATYYCQQYHSYPYTFGQGTKLEIK
modifications: homo sapiens
In assay [2], B1 showed a Kdis of 6.9e-05 s⁻¹ and a Kon of 210000 M⁻¹ s⁻¹. For the same molecule, the “Binding EC50 human AXL Average (s.d.)” value with human AXL is given as 0.184 (0.117) μg/mL. The “Binding EC50 cynomolgus AXL Average (s.d.)” value in assay [3] is 0.250 (0.066) μg/mL. The “binding to AXL with a mouse ECD” value in assay [4] is listed as “not detectable”. Also, the “induction of ADCC” value in the assay on A431 cells is “did not induce significant ADCC”. Further, the “internalization of membrane-bound antibody” value in assay [1] was “internalize”.

B2: IgG1-AXL-148: human IgG1,κ anti-AXL antibody, VH SEQ ID NO:5, VL SEQ ID NO:6; Ig2 domain binding (antibody, V domains shown)
VH: EVQLLESGGGLVQPGGSLRLSCAASGFTFSSYAMTWVRQAPGKGLEWVSAISISGGSTFYADSVKGRFTISRDNSKNTLYLQMNSLRAEDTAVYYCRGYSGYVYDAFDFWGQGTMVTVSS
VL: DIQMTQSPSSLSASVGDRVTITCRASQGISNWLAWYQQKPEKAPKSLIYAASSLQSGVPSRFSGSGSGTDFTLTISSLQPEDFATYYCQQYNSYPLTFGGGTKVEIK
modifications: homo sapiens
On to B2, for which, in assay [2], the Kdis is 0.0044 s⁻¹ and the Kon was 230000 M⁻¹ s⁻¹. Moreover, the “Binding EC50 human AXL Average (s.d.)” value with human AXL is listed as 0.094 (0.059) μg/mL. The “Binding EC50 cynomolgus AXL Average (s.d.)” value in [3] is 0.152 (0.080) μg/mL. Also, the “binding to AXL with a mouse ECD” value in assay [4] is listed as “not detectable”. Besides, the “Antibody binding to A431 cells: EC50 w/o Gas6 mean (s.d.)” value with AXL on A431 cells (no Gas6 pre-incubation) is 0.11 (0.13) μg/mL. Further, in the assay with AXL on A431 cells (pre-incubation with 10 μg/mL Gas6), the “Antibody binding to A431 cells: EC50 in presence of Gas6 mean (s.d.)” value is listed as 0.20 (0.30) μg/mL. The “induction of ADCC” value with A431 cells is reported as “did not induce significant ADCC”. Further, the Maximal binding in assay [5] was determined as 3499 Arbitrary units. In addition, the anti-tumor activity result in the assay on PAXF1657 tumors is “did not result in anti-tumor activity”. Moreover, in assay [1], the “internalization of membrane-bound antibody” value was “internalize”. Further, in [6], the “Gas6 binding: Maximal binding in presence of AXL antibodies (% of binding in presence of control antibody)” value was 106%.
